Data taken from US20240294670A1 (University of Texas, published 2024).

Target: T1, Q3T9S7_MOUSE (mouse, UniProt Q3T9S7 22-1179)
T1 construct: also called tr|Q3T9S7|Q3T9S7_MOUSE
T1 sequence: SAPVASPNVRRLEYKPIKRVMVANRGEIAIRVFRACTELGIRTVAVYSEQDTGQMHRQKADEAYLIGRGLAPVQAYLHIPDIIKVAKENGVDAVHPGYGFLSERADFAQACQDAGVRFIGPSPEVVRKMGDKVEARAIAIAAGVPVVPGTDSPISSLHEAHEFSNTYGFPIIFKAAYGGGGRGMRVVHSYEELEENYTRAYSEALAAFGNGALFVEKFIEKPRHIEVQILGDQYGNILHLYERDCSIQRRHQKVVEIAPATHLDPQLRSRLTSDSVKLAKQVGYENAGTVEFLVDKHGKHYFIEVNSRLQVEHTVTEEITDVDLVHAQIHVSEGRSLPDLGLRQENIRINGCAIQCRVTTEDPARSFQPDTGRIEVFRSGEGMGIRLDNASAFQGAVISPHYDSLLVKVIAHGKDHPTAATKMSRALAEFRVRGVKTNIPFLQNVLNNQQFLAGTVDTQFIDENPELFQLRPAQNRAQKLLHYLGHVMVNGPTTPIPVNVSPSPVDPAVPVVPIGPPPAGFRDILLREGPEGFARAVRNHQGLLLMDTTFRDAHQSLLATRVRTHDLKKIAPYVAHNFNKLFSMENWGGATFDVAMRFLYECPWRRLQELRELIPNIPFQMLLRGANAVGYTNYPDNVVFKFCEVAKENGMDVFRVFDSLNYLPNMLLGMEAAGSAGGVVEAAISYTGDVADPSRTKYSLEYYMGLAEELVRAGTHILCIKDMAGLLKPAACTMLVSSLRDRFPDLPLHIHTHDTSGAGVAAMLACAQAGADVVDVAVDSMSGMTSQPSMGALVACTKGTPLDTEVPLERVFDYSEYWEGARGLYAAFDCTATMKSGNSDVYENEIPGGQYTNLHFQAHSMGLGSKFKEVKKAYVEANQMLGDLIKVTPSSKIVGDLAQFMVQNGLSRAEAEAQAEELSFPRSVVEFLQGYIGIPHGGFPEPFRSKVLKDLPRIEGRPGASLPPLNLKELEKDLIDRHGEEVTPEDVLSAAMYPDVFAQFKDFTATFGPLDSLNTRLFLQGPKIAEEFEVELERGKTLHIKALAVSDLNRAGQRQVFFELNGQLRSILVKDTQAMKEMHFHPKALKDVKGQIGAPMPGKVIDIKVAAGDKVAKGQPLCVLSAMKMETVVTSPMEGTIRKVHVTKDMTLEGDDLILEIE
Assay: anti-His co-IP of rCHI3L1 from Kupffer cell lysate, MS; listed under 'proteins bound to CHI3L1'
How it was run: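 Kupffer cells from WT mice 3 h after APAP were incubated with His-tagged rCHI3L1; lysate immunoprecipitated with anti-His antibody and the pulled-down fraction identified by LC/MS.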

binding result: binds
B1: recombinant mouse CHI3L1 (ligand)
chain: not shown
notes: His-tagged; also called mCHI3L1; mChi3l1
